Columns and labels:
Test in all cases: BLI
[1] = target: spike RBD of the Epsilon variant (SARS-CoV-2, Epsilon (B.1.429), strain)
[2] = target: spike RBD of the Alpha variant (B.1.1.7) (SARS-CoV-2, Alpha (B.1.1.7), N501Y)
[3] = target: spike RBD of the Lambda variant (SARS-CoV-2, Lambda (C.37), strain)

B1: mNb6(WT) (VHH)
VHH: QVQLVESGGGLVQAGGSLRLSCAASGYIFGRNAMGWYRQAPGKERELVAGITRRGSITYYADSVKGRFTISRDNAKNTVYLQMNSLKPEDTAVYYCAADPASPAYGDYWGQGTQVTVSS
- Kd [1]: 1.32 ± 0.11 nM
- Kd [2]: 1.5 nM
- Kd [3]: 2.86 ± 0.77 nM
